Results taken from PMC4882459.

Biological target: ES-62 (Acanthocheilonema viteae)
Assay: SPR; Biacore 3000; 300 RU of ES-62 amine-coupled to a CM5 chip; CRP 10 ug/ml to 20 ng/ml flowed at 10 ul/min; HBS with 1 mM CaCl2 and 0.005% P20, pH 7.4; Langmuir 1:1 analysis, ka and kd calculated separately; avidity

B1: C-reactive protein (native, human) (natural protein)
chain: QTDMSRKAFVFPKESDTSYVSLKAPLTKPLKAFTVCLHFYTELSSTRGYSIFSYATKRQDNEILIFWSKDIGYSFTVGGSEILFEVPEVTVAPVHICTSWESASGIVEFWVDGKPRVRKSLKKGYTVGAEASIILGQEQDSFGGNFEGSQSLVGDIGNVNMWDFVLSPDEINTIYLGGPFSPNVLNWRALKYEVQGEVFTKPQLWP
With B1 the Kd was 0.1 nM and the koff was 0.0006 to 0.0014 s⁻¹.
